Legend:
[1] = biological target: GST fusion of CHD4 PHD1-2 (aa 364-506) (human) (UniProt Q14839); test: pull-down; GST-PHD1 or GST-PHD1-2 pre-bound to glutathione magnetic agarose beads; 100 ul of 50 nM nucleosome, 4°C overnight; 25 mM HEPES pH 7.4, 150 mM NaCl, 0.5 mM TCEP; bound nucleosome quantified by qPCR of the 601 DNA, normalised to input
CHD4 PHD1-2 (human) = test: pull-down (GST), qPCR; settings: Pull-down: 25 mM HEPES pH 7.4, 150 mM NaCl, 0.5 mM TCEP, 4 C overnight, 50 nM nucleosome; NMR at 0 and 100 mM NaCl (buffer not in material)

UniProt Q14839, sequence (Q14839 364-506): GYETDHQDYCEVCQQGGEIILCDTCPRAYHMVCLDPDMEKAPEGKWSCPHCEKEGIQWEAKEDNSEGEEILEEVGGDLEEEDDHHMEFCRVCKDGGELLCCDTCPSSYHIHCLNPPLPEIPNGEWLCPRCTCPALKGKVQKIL

fold increase of pull-down over WT nucleosome [1] [fold]	Substance	binding signal (fold vs WT nucleosome) (CHD4 PHD1-2 (human))
> 2	([H3.3G33R]) nucleosome core particle (from UniProt P84243 1-136; P62805 1-103; P0C0S8 1-130; P62807 1-126) (complex)	–
–	H3.3 G33R nucleosome, 601 DNA	> 2

From article PMC12802913
